Data published in publication PMC6177315 (Biochemistry, 2018).
Where two headings read alike, the source gives them in different places. Where no end group is shown, it is not given here.

B1: eIF5_(196–431) (GH-eIF5-CTD) (domain or fragment, human, UniProt P55010 196-431, looked up)
chain: EEEEDDDWGEDTTEEAQRRRMDEISDHAKVLTLSDDLERTIEERVNILFDFVKKKKEEGVIDSSDKEIVAEAERLDVKAMGPLVLTEVLFNEKIREQIKKYRRHFLRFCHNNKKAQRYLLHGLECVVAMHQAQLISKIPHILKEMYDADLLEEEVIISWSEKASKKYVSKELAKEIRVKAEPFIKWLKEAEEESSGGEEEDEDENIEVVYSKAASVPKVETVKSDNKDDDIDIDAI
B2: human eIF5B_(951–1220), comprising domains 3 and 4 (GH-eIF5B-D34) (domain or fragment, UniProt O60841 951-1220, looked up)
chain: YKEDEIPVLKDELIHELKQTLNAIKLEEKGVYVQASTLGSLEALLEFLKTSEVPYAGINIGPVHKKDVMKASVMLEHDPQYAVILAFDVRIERDAQEMADSLGVRIFSAEIIYHLFDAFTKYRQDYKKQKQEEFKHIAVFPCKIKILPQYIFNSRDPIVMGVTVEAGQVKQGTPMCVPSKNFVDIGIVTSIEINHKQVDVAKKGQEVCVKIEPIPGESPKMFGRHFEATDILVSKISRQSIDALKDWFRDEMQKSDWQLIVELKKVFEII
B3: human eIF5B_(1076–1220), comprising domain 4 (GH-eIF5B-D4) (domain or fragment, UniProt O60841 1076-1220, looked up)
chain: YKKQKQEEFKHIAVFPCKIKILPQYIFNSRDPIVMGVTVEAGQVKQGTPMCVPSKNFVDIGIVTSIEINHKQVDVAKKGQEVCVKIEPIPGESPKMFGRHFEATDILVSKISRQSIDALKDWFRDEMQKSDWQLIVELKKVFEII

What was measured:
Assay in all cases: fluorescence polarisation
[1] = target: B3
[2] = target: B2
[3] = target: B3; remark: listed apart in the source
[4] = target: B2; remark: listed apart in the source
[5] = target: Full-length human eIF5 (GH-eIF5) (human, UniProt P55010 1-431)
[6] = target: B1

## DDDIDIDAI (peptide, UniProt P55010 423-431, looked up) [eIF5 fragment comprising the C-terminal 9 residues (eIF5-CT9)]
[1]
  Kd: 740 nM
[2]
  Kd: 1200 nM

## DIDIDAI (peptide, UniProt P55010 425-431, looked up, also: fluorescein label, position not given here) [fluorescein-labeled 7-residue eIF5 C-terminal peptide (Fl-eIF5-CT7)]
[3]
  Kd: 1400 nM
[4]
  Kd: 2400 nM

## B1
[2]
  Kd: 720 nM

## EEEDEDENIEVVYSKAASVPKVETVKSDNKDDDIDIDAI (peptide, UniProt P55010 393-431, looked up) [eIF5 fragment comprising the C-terminal 39 residues (eIF5-CT39)]
[1]
  Kd: 500 nM
[2]
  Kd: 1100 nM

## B2
[5]
  Kd: 510 nM

## B3
[5]
  Kd: 370 nM
[6]
  Kd: 370 nM
